Data on 39 variants can be found in the supplement of paper PMC6755084.

The chains are these.
B1: minF1; the commonest letter at each place (parent)
chain: GAGACCGCAACTGAAAAGTTGTTATCAGAAATGGATGGGTTGAATTTCTGCACGTAGAAGCAAAAGGC

In the data set the parent is B1. Put plainly: fraction ligated after 30 min (ligated reads / total reads); higher = more ligase activity. Particulars: with F1*subA RNA substrate (template-directed ligation), 42 °C. The method, boiled down: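 Fraction ligated for every variant was calculated as the share of total reads that came from ligated RNA. Minimized ligase ribozyme variants were made from oligo-pool templates by PCR amplification, T7 transcription and gel purification. After gel separation of ligated and unligated RNAs, reverse transcription with barcoded primers and MiSeq sequencing followed. Only core bases at quality ≥30 passed filtering.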
For GAGACCGCAACTGAAAAGTTGTTATCAGACATTGATGGGTTGAATTTCTGCACGTAGAAGCAAAAGGC, the fraction ligated is 0.435. The figure for GAGACCGCAACTGAAAAGTTGTTATCAGACATCGATGGGTTGAATTTCTGCACGTAGAAGCAAAAGGC is 0.684. For GAGACCGCAACTGAAAAGTTGTTATCAGACATAGATGGGTTGAATTTCTGCACGTAGAAGCAAAAGGC, the fraction ligated is 0.773. Turning to GAGACCGCAACTGAAAAGTTGTTATCAGAGAGGGATGGGTTGAATTTCTGCACGTAGAAGCAAAAGGC, the fraction ligated is 0.0298.

With GAGACCGCAACTGAAAAGTTGTTATCAGAGAAGGATGGGTTGAATTTCTGCACGTAGAAGCAAAAGGC, the fraction ligated was determined as 0.108.

GAGACCGCAACTGAAAAGTTGTTATCAGAGACGGATGGGTTGAATTTCTGCACGTAGAAGCAAAAGGC: the fraction ligated amounted to 0.0409.

With GAGACCGCAACTGAAAAGTTGTTATCAGAGCTGGATGGGTTGAATTTCTGCACGTAGAAGCAAAAGGC, the fraction ligated worked out at 0.777. Turning to GAGACCGCAACTGAAAAGTTGTTATCAGAGTTGGATGGGTTGAATTTCTGCACGTAGAAGCAAAAGGC, the fraction ligated is 0.836. Turning to GAGACCGCAACTGAAAAGTTGTTATCAGAGGTGGATGGGTTGAATTTCTGCACGTAGAAGCAAAAGGC, the fraction ligated was 0.84. As for GAGACCGCAACTGAAAAGTTGTTATCAGATCTGGATGGGTTGAATTTCTGCACGTAGAAGCAAAAGGC, the fraction ligated came out at 0.801. In the case of GAGACCGCAACTGAAAAGTTGTTATCAGATGTGGATGGGTTGAATTTCTGCACGTAGAAGCAAAAGGC, the fraction ligated was determined as 0.785. As to GAGACCGCAACTGAAAAGTTGTTATCAGATTTGGATGGGTTGAATTTCTGCACGTAGAAGCAAAAGGC, the fraction ligated was determined as 0.818. For GAGACCGCAACTGAAAAGTTGTTATCAGTAATGGATGGGTTTAATTTCTGCACGTAGAAGCAAAAGGC the value was 0.0835; for GAGACCGCAACTGAAAAGTTGTTATCAGACATGGAAGGGTTGAATTTCTGCACGTAGAAGCAAAAGGC, 0.0266.

Regarding GAGACCGCAACTGAAAAGTTGTTATCAGACATGGAGGGGTTGAATTTCTGCACGTAGAAGCAAAAGGC, the fraction ligated is 0.0467. As to GAGACCGCAACTGAAAAGTTGTTATCAGACATGGACGGGTTGAATTTCTGCACGTAGAAGCAAAAGGC, the fraction ligated was 0.0174.

In the case of GAGACCGCAACTGAAAAGTTGTTATCAGACGTGGATGGGTTGAATTTCTGCACGTAGAAGCAAAAGGC, the fraction ligated was found to be 0.806. For GAGACCGCAACTGAAAAGTTGTTATCAGACTTGGATGGGTTGAATTTCTGCACGTAGAAGCAAAAGGC the value was 0.771; for GAGACCGCAACTGAAAAGTTGTTATCAGACCTGGATGGGTTGAATTTCTGCACGTAGAAGCAAAAGGC, 0.714; for GAGACCGCAACTGAAAAGTTGTTATCAGAGATGGATGGGTTGACTTTCTGCACGTAGAAGCAAAAGGC, 0.735. As to GAGACCGCAACTGAAAAGTTGTTATCAGAGATGGATGGGTTGATTTTCTGCACGTAGAAGCAAAAGGC, the fraction ligated came to 0.809.

Consider GAGACCGCAACTGAAAAGTTGTTATCAGAGATGGATGGGTTGAGTTTCTGCACGTAGAAGCAAAAGGC, for which the fraction ligated was found to be 0.833. Take GAGACCGCAACTGAAAAGTTGTTATCAGACATGCATGGGTTGAATTTCTGCACGTAGAAGCAAAAGGC: the fraction ligated amounted to 0.00405. For GAGACCGCAACTGAAAAGTTGTTATCAGACATGTATGGGTTGAATTTCTGCACGTAGAAGCAAAAGGC the value was 0.00409.

As for GAGACCGCAACTGAAAAGTTGTTATCAGACATGAATGGGTTGAATTTCTGCACGTAGAAGCAAAAGGC, the fraction ligated was 0.0885. Take GAGACCGCAACTGAAAAGTTGTTATCAGACATGGATCGGTTGAATTTCTGCACGTAGAAGCAAAAGGC: the fraction ligated was determined as 0.00447. For GAGACCGCAACTGAAAAGTTGTTATCAGACATGGATTGGTTGAATTTCTGCACGTAGAAGCAAAAGGC the value was 0.01; for GAGACCGCAACTGAAAAGTTGTTATCAGACATGGATAGGTTGAATTTCTGCACGTAGAAGCAAAAGGC, 0.009.

Regarding GAGACCGCAACTGAAAAGTTGTTATCAGATATGGATGGGTTGGATTTCTGCACGTAGAAGCAAAAGGC, the fraction ligated is 0.0459. For GAGACCGCAACTGAAAAGTTGTTATCAGATATGGATGGGTTGCATTTCTGCACGTAGAAGCAAAAGGC the value was 0.0532.

On to GAGACCGCAACTGAAAAGTTGTTATCAGATATGGATGGGTTGTATTTCTGCACGTAGAAGCAAAAGGC, for which the fraction ligated came out at 0.0685. With GAGACCGCAACTGAAAAGTTGTTATCAGAGATGGATGGGTTGTATTTCTGCACGTAGAAGCAAAAGGC, the fraction ligated is 0.188. For GAGACCGCAACTGAAAAGTTGTTATCAGAGATGGATGGGTTGCATTTCTGCACGTAGAAGCAAAAGGC the value was 0.179; for GAGACCGCAACTGAAAAGTTGTTATCAGAGATGGATGGGTTGGATTTCTGCACGTAGAAGCAAAAGGC, 0.14; for GAGACCGCAACTGAAAAGTTGTTATCAGACATGGATGGGTTGGATTTCTGCACGTAGAAGCAAAAGGC, 0.0454. The figure for GAGACCGCAACTGAAAAGTTGTTATCAGACATGGATGGGTTGCATTTCTGCACGTAGAAGCAAAAGGC is 0.0543; for GAGACCGCAACTGAAAAGTTGTTATCAGACATGGATGGGTTGTATTTCTGCACGTAGAAGCAAAAGGC it is 0.0731; for GAGACCGCAACTGAAAAGTTGTTATCAGTAAAGGATGGGTTGAATTTCTGCACGTAGAAGCAAAAGGC it is 0.0493. In the case of GAGACCGCAACTGAAAAGTTGTTATCAGTAAGGGATGGGTTGAATTTCTGCACGTAGAAGCAAAAGGC, the fraction ligated worked out at 0.0161.
